Assay results published in patent US12338199B2, “Bis-octahydrophenanthrene carboxamides and protein conjugates thereof” (REGENERON PHARMACEUTICALS, INC., priority 2017, dated 2025).
Substitutions are numbered along the chain they refer to. In names and notes the source's numbering stands. Where two headings read alike, the source gives them in different places.

T1: His9-hMSR1 (human MSR1 extracellular domain) (Homo sapiens, UniProt P21757)
T1 construct: human MSR1 extracellular domain expressed with a N-terminal nonahistidine tag; purchased R&D Systems 2708-MS
T1 sequence (P21757 77-451 limits assumed): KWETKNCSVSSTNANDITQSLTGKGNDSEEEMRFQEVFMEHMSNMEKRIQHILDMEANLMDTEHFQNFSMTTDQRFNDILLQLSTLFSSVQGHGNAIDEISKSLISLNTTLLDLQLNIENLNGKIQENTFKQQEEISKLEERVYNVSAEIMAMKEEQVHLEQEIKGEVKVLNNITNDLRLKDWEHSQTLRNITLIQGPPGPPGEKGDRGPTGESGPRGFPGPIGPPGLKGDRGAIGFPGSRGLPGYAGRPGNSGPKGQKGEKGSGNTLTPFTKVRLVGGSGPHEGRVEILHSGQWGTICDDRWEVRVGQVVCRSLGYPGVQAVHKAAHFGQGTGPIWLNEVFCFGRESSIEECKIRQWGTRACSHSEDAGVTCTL

B1: H1H27754P-N297Q (antibody, V domains shown)
VH: EVQLVESGGGLVQPGGSLRLSCAASGFTFRTYAMTWVRQAPGKGLDWVSAITGDGGNTYYADSVKGRFTISRDNSKNTLYLQMNSLRAEDTAIYYCAKDQRFSFALYYFDYWGQGTLVTVSS
VL: DIQMTQSPSSVSASVGDRVTITCRASQGISSWLAWYQQKPGNAPKLLIYAAFSLQSGVPSRFSGSGSGTDFTLTISSLQPEDFATYYCQQANNFPWTFGQGTKVEIKR
B2: H1H27731P-N297Q (antibody, V domains shown)
VH: QLQLQESGPGLVKPSETLSLTCTVSGGSISRISYYWGWIRQPPGKGLEWIGSIYDSGSTYYNPSLKSRVTISIDTSKNQFSLKLSSVTAADTAVYYCVRYSSSSAFAFDYWGQGTLVTVSS
VL: B1 VL with N42K, F52S, N93S, W96F, Q100P, E105D
B3: H1H27729P-N297Q (antibody, V domains shown)
VH: QVQLVESGGGLVKPGGSLRLSCAASGFIFSDYYMSWIRQAPGKGLEWVSYISSSGTTIYGDSVKGRFTMSRDNAKNSLYLQMNSLRAEDTAVYYCARNYALFDYWGQGTLVTVSS
VL: DIQMTQSPSSLSASVGDRVTITCQASQDISKYLNWYQQKPGKAPKLLIYYTSNLETGVPSRFSGSGSGTDFTFTISSLQPEDIATYYCHQSDYLPFTFGPGTKVDIKR
B4: H1H27739P-N297Q (antibody, V domains shown)
VH: EVQLVESGGGLVQPGGSLRLSCTASGFTFSSYAMSWVRQAPGKGLEWVSAISGTGSSTYFTDSVKGRFAISRDNSKNTLYLQMNSLRAEDTAVYYCAKDGEWLSTVTLFDYWGQGTLVTVSS
VL: EIVMTQSPATLSVSPGERATLSCRASQSVSSNLAWYQQKPGQAPRLLIYGASTRATGIPARFSGSGSGTDFTLTISSLQSEDFALYYCQQYFIWPPHPTFGPGTKVDIKR
B5: H1H27734P-N297Q (antibody, V domains shown)
VH: EVQLVESRGGLVQPGGSLRLSCAASGFTFSSYAMSWVRQAPGKGLEWVSAISGSGGSTFYADSVKGRFTISRDNSKNTVYLQMNSLRAEDTAVYYCAKALVLRFLEWLGDYWGQGTLVTVSS
VL: DIQMTQSPSTLSASVGDRVTITCRASQSISSWLAWFQQKPGKAPKLLIYKASSLESGVPSRFSGSGSGTEFTLTISSLQPDDFATYYCQQYKSYWTFGQGTKVEIKR
B6: H1H21234N (antibody, V domains shown)
VH: QVQLQESGPGLVKPSETLSLTCTVTGGSISRNYWSWIRQPPGKGLEWIGYIYYSGSIDYNPSLKSRVTISVDTSKNQFSLKLSSMTAADTAVYYCARDRWNWKYGMDVWGQGTTVIVSS
VL: EIVLTQSPGTLSLSPGERATLSCRASQTVRNNYLAWYHQKPGQAPRLLIYGASSRATGIPDRFSGSGSGTDFTLTISRLEPEDFTVYYCHQYGNSPWTFGQGTKMEIKR
B7: H1H21234N-N297Q-LP 13 (conjugate)
VH: B6 VH
VL: B6 VL
B8: H1H21234N-N297Q (antibody, V domains shown)
VH: B6 VH
VL: B6 VL

Legend:
[1] = biological target: T1, His9-hMSR1 (human MSR1 extracellular domain); experiment: Biacore surface plasmon resonance binding kinetics; conditions: 25° C.; for kd (s^−1) / kd: * = no dissociation observed, kd fixed at 1.00E−05; for Kd: calculated from the kinetic rates, read-out: KD (Molar); for ka: His9-hMSR1 binding to captured antibody
Method: The MSR1 antibodies disclosed herein were conjugated to various liver X receptor (LXR) payloads. This example describes how equilibrium dissociation constant (KD) values for human MSR1 reagents binding to human anti-MSR1 antibody-drug conjugates and their corresponding unconjugated parental antibodies were determined using a real-time surface plasmon resonance-based Biacore T200 biosensor.
All binding studies were performed in 10 mM HEPES, 300 mM NaCl, 3 mM EDTA, and 0.05% v/v Surfactant Tween-20, pH 7.4 (HBS-ET) running buffer at 25° C. The Biacore CM4 sensor chip surface was first derivatized by amine coupling with the goat anti-human Fcγ specific polyclonal antibody (Jackson ImmunoResearch Laboratories, Cat # BR-1008-39) to capture anti-MSR1 monoclonal antibodies. Binding studies were performed on human MSR1 extracellular domain expressed with a N-terminal nonahistidine tag (His9-hMSR1; R&D Systems, Cat #2708-MS).
The association rate (ka) and dissociation rate (kd) were determined by fitting the real-time binding sensorgrams to a 1:1 binding model with mass transport limitation using Scrubber 2.0c curve-fitting software. Binding dissociation equilibrium constant (KD) and dissociative half-life (t½) were calculated from the kinetic rates as: […]

THP1/LXR-Luc cells = experiment: LXR-luciferase reporter bioassay in PMA-differentiated THP1/LXR-Luc cells; format: cell-based, human; conditions: for S/N (signal to noise, ratio of RLU of standard one over RLU of standard eight) / EC50: PMA-differentiated THP1/LXR-Luc cells, 48 hours; for S/N (signal to noise, ratio of RLU of standard one over RLU of standard eight): luciferase activity; for EC50: luciferase activity (One-Glo), 10-point dose response 100 nM to 0.01 nM
Excerpt: To test the efficacy of anti-MSR1 antibody-LXR conjugates in vitro, a cell-based LXR responsive luciferase reporter assay was developed. To generate the assay cell line, a LXR regulated luciferase reporter gene [Cignal Lenti LXR Reporter (luc) kit (Qiagen, Cat # CLS-001L)] was transduced into THP1 cells, and cells were selected for two weeks in puromycin. The lentivirus expresses the firefly luciferase gene under the control of a minimal CMV promoter and tandem repeats of the LXR transcriptional response element. The resulting cell line is referred to as THP1/LXR-Luc cells.
THP1/LXR-Luc cells were seeded onto 96 well plates at 40,000 cells/well in media containing RPMI supplemented with 10% FBS and pencillin/streptomycin and subsequently differentiated with 200 nM Phorbol Myristate Acetate (PMA) for 3 days. After the 3-day differentiation period, three-fold serial dilutions of antibody drug conjugates, unconjugated antibodies, or free payloads in fresh media were added to the cells at final concentration ranging from 100 nM to 0.01 nM. Media alone served as a blank control. Forty-eight hours later, luciferase activity was determined after the addition of One-Glo™ reagent (Promega, Cat # E6130) to each well. Relative light units (RLUs) were measured on a Victor luminometer (PerkinElmer) and EC50 values were determined using a four-parameter logistic equation over a 10-point dose response curve (GraphPad Prism). The signal to noise (S/N) was determined by calculating the ratio of RLU of standard one over RLU of standard eight for each of the unconjugated anti-MSR1 antibodies or free payloads. “LP #” represents a linker-payload for which the corresponding structures are provided elsewhere herein, and “P #” represents a payload for which the corresponding structures are provided elsewhere herein.

THP-1 cells = experiment: BODIPY-cholesterol efflux in THP-1 macrophages; format: cell-based, human
Method: The ability of anti-MSR1 antibody-LXR conjugates to activate cholesterol efflux in a human macrophage cell line (THP-1; ATCC Catalog # TIB-202), was assessed using a fluorescent cholesterol analog.
Cells were differentiated into macrophages by addition of 100 nM Phorbol-12 myristate 13-acetate (Sigma, Catalog #P 8139) to the media and subjected to further incubation for 96 hours.
Percentage of BODIPY-cholesterol efflux was calculated using the following formula: [fluorescence in acceptor media/(fluorescence in acceptor media+fluorescence in cell lysate)]×100. Table 15 provides activated cholesterol efflux for the tested articles, and FIG. 15 illustrates the data in graph form.

Molecule | Kd [1] [nM] | ka [1] [M⁻¹ s⁻¹] | kd [1] [s⁻¹] | also measured
B1 | 0.0499 | 200000 |  | kd (s^−1) [1]: ≤ 1.00E−05* s^−1
B2 | 0.0855 | 117000 | 1e-05 | 
B3 | 8.67 | 105000 | 0.000906 | 
B4 | 4.68 | 119000 | 0.000555 | 
B5 | 7.72 | 77200 | 0.000596 | 
B6 |  |  |  | stimulation of the THP/Luc cells (THP1/LXR-Luc cells; 48-hour time point, in words): did not have any impact
B7 |  |  |  | S/N (signal to noise, ratio of RLU of standard one over RLU of standard eight) (THP1/LXR-Luc cells): 9.6; EC50 (THP1/LXR-Luc cells; read-out: EC50): 0.98 nM
B8 | 0.0454 | 220000 |  | Maximum efflux (%) (THP-1 cells; 24-hour treatment, BODIPY-cholesterol efflux): 18.7%; cholesterol efflux (THP-1 cells; after 24 hours, in words): did not demonstrated any measurable cholesterol efflux; S/N (signal to noise, ratio of RLU of standard one over RLU of standard eight) (THP1/LXR-Luc cells): No activation; EC50 (THP1/LXR-Luc cells): No activation; kd (s^−1) [1]: ≤ 1.00E−05* s^−1
